# Data: IntAct's records for PubMed 31515488
# B1: Double-strand-break repair protein rad21 homolog (Homo sapiens), O60216 (parent)
# chain: MFYAHFVLSKRGPLAKIWLAAHWDKKLTKAHVFECNLESSVESIISPKVKMALRTSGHLLLGVVRIYHRKAKYLLADCNEAFIKIKMAFRPGVVDLPEENREAAYNAITLPEEFHDFDQPLPDLDDIDVAQQFSLNQSRVEEITMREEVGNISILQENDFGDFGMDDREIMREGSAFEDDDMLVSTTTSNLLLESEQSTSNLNEKINHLEYEDQYKDDNFGEGNDGGILDDKLISNNDGGIFDDPPALSEAGVMLPEQPAHDDMDEDDNVSMGGPDSPDSVDPVEPMPTMTDQTTLVPNEEEAFALEPIDITVKETKAKRKRKLIVDSVKELDSKTIRAQLSDYSDIVTTLDLAPPTKKLMMWKETGGVEKLFSLPAQPLWNNRLLKLFTRCLTPLVPEDLRKRRKGGEADNLDEFLKEFENPEVPREDQQQQHQQRDVIDEPIIEEPSRLQESVMEASRTNIDESAMPPPPPQGVKRKAGQIDPEPVMPPQQVEQMEIPPVELPPEEPPNICQLIPELELLPEKEKEKEKEKEDDEEEEDEDASGGDQDQEERRWNKRTQQMLHGLQRALAKTGAESISLLELCRNTNRKQAAAKFYSFLVLKKQQAIELTQEEPYSDIIATPGPRFHII
# B2: E3 ubiquitin-protein ligase LNX (Homo sapiens), Q8TBB1 (parent)
# chain: MNQPESANDPEPLCAVCGQAHSLEENHFYSYPEEVDDDLICHICLQALLDPLDTPCGHTYCTLCLTNFLVEKDFCPMDRKPLVLQHCKKSSILVNKLLNKLLVTCPFREHCTQVLQRCDLEHHFQTSCKGASHYGLTKDRKRRSQDGCPDGCASLTATAPSPEVSAAATISLMTDEPGLDNPAYVSSAEDGQPAISPVDSGRSNRTRARPFERSTIRSRSFKKINRALSVLRRTKSGSAVANHADQGRENSENTTAPEVFPRLYHLIPDGEITSIKINRVDPSESLSIRLVGGSETPLVHIIIQHIYRDGVIARDGRLLPGDIILKVNGMDISNVPHNYAVRLLRQPCQVLWLTVMREQKFRSRNNGQAPDAYRPRDDSFHVILNKSSPEEQLGIKLVRKVDEPGVFIFNVLDGGVAYRHGQLEENDRVLAINGHDLRYGSPESAAHLIQASERRVHLVVSRQVRQRSPDIFQEAGWNSNGSWSPGPGERSNTPKPLHPTITCHEKVVNIQKDPGESLGMTVAGGASHREWDLPIYVISVEPGGVISRDGRIKTGDILLNVDGVELTEVSRSEAVALLKRTSSSIVLKALEVKEYEPQEDCSSPAALDSNHNMAPPSDWSPSWVMWLELPRCLYNCKDIVLRRNTAGSLGFCIVGGYEEYNGNKPFFIKSIVEGTPAYNDGRIRCGDILLAVNGRSTSGMIHACLARLLKELKGRITLTIVSWPGTFL
# partner: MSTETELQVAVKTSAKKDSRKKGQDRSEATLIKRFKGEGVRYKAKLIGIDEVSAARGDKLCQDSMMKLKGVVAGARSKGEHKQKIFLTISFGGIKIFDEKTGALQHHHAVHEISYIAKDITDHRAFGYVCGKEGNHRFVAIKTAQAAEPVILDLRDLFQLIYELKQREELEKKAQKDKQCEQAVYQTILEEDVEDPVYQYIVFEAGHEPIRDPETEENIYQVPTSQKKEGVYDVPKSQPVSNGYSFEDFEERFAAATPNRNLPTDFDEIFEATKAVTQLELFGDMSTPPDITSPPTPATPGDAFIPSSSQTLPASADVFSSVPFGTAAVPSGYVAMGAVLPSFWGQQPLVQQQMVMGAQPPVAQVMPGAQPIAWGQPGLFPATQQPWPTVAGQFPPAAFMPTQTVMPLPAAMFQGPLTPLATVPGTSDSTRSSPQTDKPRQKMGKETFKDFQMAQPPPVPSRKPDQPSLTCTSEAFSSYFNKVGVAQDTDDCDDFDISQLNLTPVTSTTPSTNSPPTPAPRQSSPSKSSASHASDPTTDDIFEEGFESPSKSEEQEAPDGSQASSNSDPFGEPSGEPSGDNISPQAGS
# B3: PDZ and LIM domain protein 3 (Homo sapiens), Q53GG5 (parent)
# chain: MPQTVILPGPAPWGFRLSGGIDFNQPLVITRITPGSKAAAANLCPGDVILAIDGFGTESMTHADAQDRIKAAAHQLCLKIDRGETHLWSPQVSEDGKAHPFKINLESEPQDGNYFEHKHNIRPKPFVIPGRSSGCSTPSGIDCGSGRSTPSSVSTVSTICPGDLKVAAKLAPNIPLEMELPGVKIVHAQFNTPMQLYSDDNIMETLQGQVSTALGETPLMSEPTASVPPESDVYRMLHDNRNEPTQPRQSGSFRVLQGMVDDGSDDRPAGTRSVRAPVTKVHGGSGGAQRMPLCDKCGSGIVGAVVKARDKYRHPECFVCADCNLNLKQKGYFFIEGELYCETHARARTKPPEGYDTVTLYPKA
# B4: 5-phosphohydroxy-L-lysine phospho-lyase (Homo sapiens), Q8IUZ5 (parent)
# chain: MAADQRPKADTLALRQRLISSSCRLFFPEDPVKIVRAQGQYMYDEQGAEYIDCISNVAHVGHCHPLVVQAAHEQNQVLNTNSRYLHDNIVDYAQRLSETLPEQLCVFYFLNSGSEANDLALRLARHYTGHQDVVVLDHAYHGHLSSLIDISPYKFRNLDGQKEWVHVAPLPDTYRGPYREDHPNPAMAYANEVKRVVSSAQEKGRKIAAFFAESLPSVGGQIIPPAGYFSQVAEHIRKAGGVFVADEIQVGFGRVGKHFWAFQLQGKDFVPDIVTMGKSIGNGHPVACVAATQPVARAFEATGVEYFNTFGGSPVSCAVGLAVLNVLEKEQLQDHATSVGSFLMQLLGQQKIKHPIVGDVRGVGLFIGVDLIKDEATRTPATEEAAYLVSRLKENYVLLSTDGPGRNILKFKPPMCFSLDNARQVVAKLDAILTDMEEKVRSCETLRLQP
# partner: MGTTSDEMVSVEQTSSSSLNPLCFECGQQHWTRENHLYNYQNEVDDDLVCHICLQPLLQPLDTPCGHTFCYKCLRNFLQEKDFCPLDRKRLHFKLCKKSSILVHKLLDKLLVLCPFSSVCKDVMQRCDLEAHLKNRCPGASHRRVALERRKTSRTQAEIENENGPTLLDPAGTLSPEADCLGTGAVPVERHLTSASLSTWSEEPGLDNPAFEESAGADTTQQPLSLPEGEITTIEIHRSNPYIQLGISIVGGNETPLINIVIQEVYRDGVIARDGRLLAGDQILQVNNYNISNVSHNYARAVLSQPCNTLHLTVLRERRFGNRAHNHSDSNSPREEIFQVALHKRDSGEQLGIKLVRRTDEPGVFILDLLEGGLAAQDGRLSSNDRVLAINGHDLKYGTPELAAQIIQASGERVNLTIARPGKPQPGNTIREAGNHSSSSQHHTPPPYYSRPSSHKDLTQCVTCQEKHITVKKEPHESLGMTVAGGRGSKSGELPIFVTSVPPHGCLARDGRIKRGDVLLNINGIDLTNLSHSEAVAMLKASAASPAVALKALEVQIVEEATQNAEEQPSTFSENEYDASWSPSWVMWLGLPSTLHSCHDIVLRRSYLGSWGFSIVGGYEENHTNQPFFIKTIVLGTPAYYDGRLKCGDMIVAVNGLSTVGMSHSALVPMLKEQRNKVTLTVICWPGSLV
# B5: Transmembrane 4 L6 family member 4 (Homo sapiens), P48230 (parent)
# chain: MCTGGCARCLGGTLIPLAFFGFLANILLFFPGGKVIDDNDHLSQEIWFFGGILGSGVLMIFPALVFLGLKNNDCCGCCGNEGCGKRFAMFTSTIFAVVGFLGAGYSFIISAISINKGPKCLMANSTWGYPFHDGDYLNDEALWNKCREPLNVVPWNLTLFSILLVVGGIQMVLCAIQVVNGLLGTLCGDCQCCGCCGGDGPV
# partner: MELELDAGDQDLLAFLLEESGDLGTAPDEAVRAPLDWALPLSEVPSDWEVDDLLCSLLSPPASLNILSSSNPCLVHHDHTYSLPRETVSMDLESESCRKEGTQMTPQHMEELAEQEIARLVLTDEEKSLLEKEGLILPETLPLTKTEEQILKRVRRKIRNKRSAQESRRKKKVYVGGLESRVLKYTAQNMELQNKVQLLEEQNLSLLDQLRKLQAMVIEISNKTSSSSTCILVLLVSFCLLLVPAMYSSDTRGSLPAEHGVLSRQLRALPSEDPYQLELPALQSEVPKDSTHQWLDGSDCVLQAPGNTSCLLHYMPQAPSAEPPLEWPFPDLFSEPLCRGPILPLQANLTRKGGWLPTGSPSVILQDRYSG
# Variants of: B1
# Details: with fhl3_human FHL3, Q13643
# Sequence of fhl3_human FHL3, Q13643 (Q13643 whole entry): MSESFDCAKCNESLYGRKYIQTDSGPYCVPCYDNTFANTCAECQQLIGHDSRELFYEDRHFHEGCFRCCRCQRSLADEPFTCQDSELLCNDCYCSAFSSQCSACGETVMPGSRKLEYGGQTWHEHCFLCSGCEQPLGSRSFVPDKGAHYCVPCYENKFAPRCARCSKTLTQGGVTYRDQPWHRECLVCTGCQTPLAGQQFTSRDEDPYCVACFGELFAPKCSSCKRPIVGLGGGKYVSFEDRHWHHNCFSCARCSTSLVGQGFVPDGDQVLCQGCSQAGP
row,Variant,effect of a mutation on the interaction
1,D414E,with no effect

# Variants of: B2
# Details: with dab1_human DAB1, O75553
row,Variant,effect of a mutation on the interaction
1,R342H,with no effect

# Variants of: B3
# Details: with actn2_human ACTN2, P35609
# Sequence of actn2_human ACTN2, P35609 (P35609 whole entry): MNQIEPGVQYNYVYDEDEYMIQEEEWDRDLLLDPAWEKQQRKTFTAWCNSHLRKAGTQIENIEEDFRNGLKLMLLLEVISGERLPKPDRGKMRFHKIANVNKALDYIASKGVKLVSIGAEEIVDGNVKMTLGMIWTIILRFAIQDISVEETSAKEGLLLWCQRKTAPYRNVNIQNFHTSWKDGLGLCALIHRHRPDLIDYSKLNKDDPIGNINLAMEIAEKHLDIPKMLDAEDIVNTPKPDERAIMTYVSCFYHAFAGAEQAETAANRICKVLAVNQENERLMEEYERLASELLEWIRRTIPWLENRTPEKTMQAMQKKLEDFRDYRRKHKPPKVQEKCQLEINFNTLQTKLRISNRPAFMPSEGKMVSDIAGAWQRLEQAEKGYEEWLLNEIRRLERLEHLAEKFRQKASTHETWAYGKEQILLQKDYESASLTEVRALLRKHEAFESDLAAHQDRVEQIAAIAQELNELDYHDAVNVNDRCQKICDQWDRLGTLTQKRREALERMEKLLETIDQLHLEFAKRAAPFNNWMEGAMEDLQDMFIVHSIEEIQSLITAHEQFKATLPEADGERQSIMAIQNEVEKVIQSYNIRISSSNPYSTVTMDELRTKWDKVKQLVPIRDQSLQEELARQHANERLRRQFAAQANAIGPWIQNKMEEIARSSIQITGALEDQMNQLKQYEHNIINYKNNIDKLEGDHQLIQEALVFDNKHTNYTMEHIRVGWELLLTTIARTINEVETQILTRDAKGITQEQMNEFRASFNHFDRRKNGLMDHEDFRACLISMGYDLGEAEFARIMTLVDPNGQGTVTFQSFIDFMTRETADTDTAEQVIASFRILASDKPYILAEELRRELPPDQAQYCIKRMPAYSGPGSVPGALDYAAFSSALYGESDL
row,Variant,effect of a mutation on the interaction
1,T279M,with no effect
2,T245I,with no effect

# Variants of: B4
# Details: with lnx2_human LNX2, Q8N448
row,Variant,effect of a mutation on the interaction
1,H126R,with no effect

# Variants of: B5
# Details: with creb3_human CREB3, O43889
row,Variant,effect of a mutation on the interaction
1,A63V,with no effect
